Source: article PMC11564643

Legend:
[1] = target: dynamic microtubules grown from GMPCPP stabilized seeds (porcine brain tubulin) (porcine) (UniProt P02550)
[2] = target: dynamic microtubules grown from GMPCPP stabilized seeds (porcine brain tubulin) (porcine) (UniProt P02550); assay: FRAP (TIRF microscopy on dynamic microtubules); set-up of the buckling experiment; EB3 and HSET bleached together (488 and 561 nm lasers at 100% for 50 frames), recovery followed at free tips and in antiparallel overlaps

force on a streptavidin bead coated directly with a saturating amount of biotinylated EB3 dimers, optical trap at a growing microtubule tip [1] | fluorescence recovery time at single microtubule tips (in the presence of HSET) [2] | fold slower turnover at tips in antiparallel overlaps (with HSET) against single tips [2] | Substance
0.5 pN |  |  | biotinylated EB3 dimers coupled directly to streptavidin beads (from UniProt Q9UPY8 1-281) (natural protein)
 | 6 s | 3 fold | mGFP-EB3 homodimer (from UniProt Q9UPY8 1-281) (natural protein)
